Reference: paper PMC4771075

Biological target: Dyn A(1-11)NH2 (Rattus norvegicus)
Assay: radioligand

B1: KOR, P34975 (protein)
chain: MESPIQIFRGEPGPTCAPSACLLPNSSSWFPNWAESDSNGSVGSEDQQLEPAHISPAIPVIITAVYSVVFVVGLVGNSLVMFVIIRYTKMKTATNIYIFNLALADALVTTTMPFQSAVYLMNSWPFGDVLCKIVISIDYYNMFTSIFTLTMMSVDRYIAVCHPVKALDFRTPLKAKIINICIWLLASSVGISAIVLGGTKVREDVDVIECSLQFPDDEYSWWDLFMKICVFVFAFVIPVLIIIVCYTLMILRLKSVRLLSGSREKDRNLRRITKLVLVVVAVFIICWTPIHIFILVEALGSTSHSTAVLSSYYFCIALGYTNSSLNPVLYAFLDENFKRCFRDFCFPIKMRMERQSTNRVRNTVQDPASMRDVGGMNKPV
Q: B1 was tested. Which Ki did it give?
A: Its Ki is 2.6 nM.
